PMC5987255 (Molecular cell, 2018)

B1: mouse core RAG1 (aa 384-1008), E962Q mutant (domain or fragment, UniProt P15919 384-1008, looked up)
chain: VHINKGGRPRQHLLSLTRRAQKHRLRELKIQVKEFADKEEGGDVKAVCLTLFLLALRARNEHRQADELEAIMQGRGSGLQPAVCLAIRVNTFLSCSQYHKMYRTVKAITGRQIFQPLHALRNAEKVLLPGYHPFEWQPPLKNVSSRTDVGIIDGLSGLASSVDEYPVDTIAKRFRYDSALVSALMDMEEDILEGMRSQDLDDYLNGPFTVVVKESCDGMGDVSEKHGSGPAVPEKAVRFSFTVMRITIEHGSQNVKVFEEPKPNSELCCKPLCLMLADESDHETLTAILSPLIAEREAMKSSELTLEMGGIPRTFKFIFRGTGYDEKLVREVEGLEASGSVYICTLCDTTRLEASQNLVFHSITRSHAENLQRYEVWRSNPYHESVEELRDRVKGVSAKPFIETVPSIDALHCDIGNAAEFYKIFQLEIGEVYKHPNASKEERKRWQATLDKHLRKRMNLKPIMRMNGNFARKLMTQETVDAVCELIPSEERHEALRELMDLYLKMKPVWRSSCPAKECPESLCQYSFNSQRFAELLSTKFKYRYEGKITNYFHKTLAHVPEIIERDGSIGAWASEGNQSGNKLFRRFRKMNARQSKCYEMEDVLKHHWLYTSKYLQKFMNAHNA

How the values were obtained:
crystal structure = target: the molecule itself; experiment: crystal structure
[1] = target: B1; experiment: crystal structure

Binder | binding result (crystal structure) | binding result [1]
B1 | binds | 
mouse core RAG2 (aa 1-359) (domain or fragment, UniProt P21784 1-359, looked up) MSLQMVTVGHNIALIQPGFSLMNFDGQVFFFGQKGWPKRSCPTGVFHFDIKQNHLKLKPAIFSKDSCYLPPLRYPATCSYKGSIDSDKHQYIIHGGKTPNNELSDKIYIMSVACKNNKKVTFRCTEKDLVGDVPEPRYGHSIDVVYSRGKSMGVLFGGRSYMPSTQRTTEKWNSVADCLPHVFLIDFEFGCATSYILPELQDGLSFHVSIARNDTVYILGGHSLASNIRPANLYRIRVDLPLGTPAVNCTVLPGGISVSSAILTQTNNDEFVIVGGYQLENQKRMVCSLVSLGDNTIEISEMETPDWTSDIKHSKIWFGSNMGNGTIFLGIPGDNKQAMSEAFYFYTLRCSEEDLSEDQ |  | binds
